The target of experiment [1] is recombinant glutathione S-transferase (GST) NudE (UniProt Q9CZA6). Put plainly: pull-down; 1 ug/ul GST-NudE or GST-CC1 with glutathione agarose 4B and pre-cleared whole brain lysate of P0 wild-type or Loa/Loa mice; phosphate-glutamate buffer (10 mM sodium phosphate, 100 mM sodium glutamate, pH 7.0, 1 mM MgSO4, 1 mM EDTA, 1 mM DTT, 0.2% NP-40), 4°C, 2 hours; western blot of supernatants and pellets. (Immunoblotting shows a protein as a band on a membrane.)

Experiment [2] has as its target GST-tagged CC1 fragment from the dynactin subunit p150Glued. Described as above.

UniProt Q9CZA6, sequence (Q9CZA6 whole entry): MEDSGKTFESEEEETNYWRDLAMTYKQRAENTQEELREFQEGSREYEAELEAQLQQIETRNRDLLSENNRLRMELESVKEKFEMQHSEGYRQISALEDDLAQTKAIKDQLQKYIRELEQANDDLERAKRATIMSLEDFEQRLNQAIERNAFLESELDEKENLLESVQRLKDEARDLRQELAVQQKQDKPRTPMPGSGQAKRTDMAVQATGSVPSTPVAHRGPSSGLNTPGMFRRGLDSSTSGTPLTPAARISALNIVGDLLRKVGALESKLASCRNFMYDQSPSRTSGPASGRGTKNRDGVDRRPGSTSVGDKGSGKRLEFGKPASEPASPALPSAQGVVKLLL

“Loa/Loa mutant cytoplasmic dynein (from UniProt Q9JHU4 1-4644; O88485 1-628) (complex)”: the percent of heavy chain in the NudE pellet in experiment [1] came to 57.7%. In experiment [2], the percent of heavy chain in the pellet stood at 40.7%.
On the same counts, the results for “wild-type cytoplasmic dynein (from UniProt Q9JHU4 1-4644; O88485 1-628) (complex)” are 66.2% and 45.3%.

The record behind these values is paper PMC3127822.
